Source: the supplement of paper PMC11246515
± gives the standard deviation of the averaged measurements.

Assay: total protein half-life in vivo (active degradation + dilution); higher = more stable protein
[1] = E. coli NCM3722 delta-clpP, growth: N-lim chemostat, doubling time 6 h
[2] = E. coli NCM3722 delta-hslV, growth: N-lim chemostat, doubling time 6 h
[3] = E. coli NCM3722 delta-lon, growth: N-lim chemostat, doubling time 6 h
[4] = E. coli NCM3722 delta-smpB, growth: N-lim chemostat, doubling time 6 h
[5] = wild type E. coli NCM3722, growth: C-lim chemostat, doubling time 3 h
[6] = wild type E. coli NCM3722, growth: C-lim chemostat, doubling time 6 h
[7] = wild type E. coli NCM3722, growth: C-lim chemostat, doubling time 12 h
[8] = wild type E. coli NCM3722, growth: N-lim chemostat, doubling time 6 h
[9] = wild type E. coli NCM3722, growth: N-lim chemostat, doubling time 12 h
[10] = wild type E. coli NCM3722, growth: P-lim chemostat, doubling time 6 h
[11] = wild type E. coli NCM3722, growth: P-lim chemostat, doubling time 12 h
[12] = E. coli NCM3722 delta-clpP delta-lon delta-hslV, growth: N-lim chemostat, doubling time 6 h

| Sequence | total protein half-life in vivo [1] | total protein half-life in vivo [2] | total protein half-life in vivo [3] | total protein half-life in vivo [4] | total protein half-life in vivo [5] | total protein half-life in vivo [6] | total protein half-life in vivo [7] | total protein half-life in vivo [8] | total protein half-life in vivo [9] | total protein half-life in vivo [10] | total protein half-life in vivo [11] | total protein half-life in vivo [12] |
| --- | --- | --- | --- | --- | --- | --- | --- | --- | --- | --- | --- | --- |
| MTTMLEVAKRAGVSKATVSRVLSGNGYVSQETKDRVFQAVEESGYRPNLLARNLSAKSTQTLGLVVTNTLYHGIYFSELLFHAARMAEEKGRQLLLADGKHSAEEERQAIQYLLDLRCDAIMIYPRFLSVDEIDDIIDAHSQPIMVLNRRLRKNSSHSVWCDHKQTSFNAVAELINAGHQEIAFLTGSMDSPTSIERLAGYKDALAQHGIALNEKLIANGKWTPASGAEGVEMLLERGAKFSALVASNDDMAIGAMKALHERGVAVPEQVSVIGFDDIAIAPYTVPALSSVKIPVTEMIQEIIGRLIFMLDGGDFSPPKTFSGKLIRRDSLIAPSR | 4.95 h | 3.46 ± 0.2 h | 4.26 ± 0.14 h | 3.44 ± 0.13 h | 3 ± 0.72 h | 4.91 ± 0.77 h | 8.06 ± 0.59 h | 3.59 h | 5.73 ± 0.34 h | 2.66 ± 0.17 h | 7.06 ± 0.59 h | – |
| MTTPTFDTIEAQASYGIGLQVGQQLSESGLEGLLPEALVAGIADALEGKHPAVPVDVVHRALREIHERADAVRRQRFQAMAAEGVKYLEENAKKEGVNSTESGLQFRVINQGEGAIPARTDRVRVHYTGKLIDGTVFDSSVARGEPAEFPVNGVIPGWIEALTLMPVGSKWELTIPQELAYGERGAGASIPPFSTLVFEVELLEIL [P0A9L3] | 4.54 ± 0.58 h | 3.72 ± 0.16 h | 5 ± 0.44 h | 3.45 ± 0.19 h | 3.06 ± 0.2 h | 5.67 ± 0.37 h | 10.4 ± 0.65 h | 3.59 ± 0.1 h | 5.3 ± 0.15 h | 5.591 ± 0.04 h | 11 ± 0.86 h | 4.93 ± 0.29 h |
| MTTQRSPGLFRRLAHGSLVKQILVGLVLGILLAWISKPAAEAVGLLGTLFVGALKAVAPILVLMLVMASIANHQHGQKTNIRPILFLYLLGTFSAALAAVVFSFAFPSTLHLSSSAGDISPPSGIVEVMRGLVMSMVSNPIDALLKGNYIGILVWAIGLGFALRHGNETTKNLVNDMSNAVTFMVKLVIRFAPIGIFGLVSSTLATTGFSTLWGYAQLLVVLVGCMLLVALVVNPLLVWWKIRRNPFPLVLLCLRESGVYAFFTRSSAANIPVNMALCEKLNLDRDTYSVSIPLGATINMAGAAITITVLTLAAVNTLGIPVDLPTALLLSVVASLCACGASGVAGGSLLLIPLACNMFGISNDIAMQVVAVGFIIGVLQDSCETALNSSTDVLFTAAACQAEDDRLANSALRN [P0AGE4] | 5.78 h | 6.04 h | 5.28 h | 6.21 ± 0.49 h | 3.36 h | 5.87 ± 0.55 h | 12.3 ± 0.23 h | 5.94 ± 0.44 h | 11.6 h | 5.5355 ± 0.00083 h | 10.7 ± 0.53 h | 5.56 ± 0.69 h |
| MTTQTVSGRRYFTKAWLMEQKSLIALLVLIAIVSTLSPNFFTINNLFNILQQTSVNAIMAVGMTLVILTSGIDLSVGSLLALTGAVAASIVGIEVNALVAVAAALALGAAIGAVTGVIVAKGRVQAFIATLVMMLLLRGVTMVYTNGSPVNTGFTENADLFGWFGIGRPLGVPTPVWIMGIVFLAAWYMLHHTRLGRYIYALGGNEAATRLSGINVNKIKIIVYSLCGLLASLAGIIEVARLSSAQPTAGTGYELDAIAAVVLGGTSLAGGKGRIVGTLIGALILGFLNNGLNLLGVSSYYQMIVKAVVILLAVLVDNKKQ [P0AGI1] | 6.38 ± 1.3 h | 5.86 ± 0.5 h | 5.86 ± 0.38 h | 6.072 ± 0.021 h | 2.957 ± 0.015 h | 5.74 ± 0.19 h | 12.5 ± 2.2 h | 6.28 ± 0.51 h | 10.5 ± 3.5 h | 5.48 ± 0.19 h | 13.2 ± 1.3 h | 6.66 ± 0.66 h |
| MTTQYGFFIDSSRCTGCKTCELACKDFKDLGPEVSFRRIYEYAGGDWQEDNGVWHQNVFAYYLSISCNHCDDPACTKVCPSGAMHKREDGFVVVDEDVCIGCRYCHMACPYGAPQYNAEKGHMTKCDGCYSRVAEGKQPICVESCPLRALEFGPIEELRQKHGTLAAVAPLPRAHFTKPNIVIKPNANSRPTGDTTGYLANPEEV [P0AAJ1] | – | – | – | – | – | – | – | – | – | – | – | 4.03 h |
| MTTQYGFFIDSSRCTGCKTCELACKDYKDLTPEVSFRRIYEYAGGDWQEDNGVWHQNVFAYYLSISCNHCEDPACTKVCPSGAMHKREDGFVVVDEDVCIGCRYCHMACPYGAPQYNETKGHMTKCDGCYDRVAEGKKPICVESCPLRALDFGPIDELRKKHGDLAAVAPLPRAHFTKPNIVIKPNANSRPTGDTTGYLANPKEV | – | – | – | – | – | 6.7 h | – | – | – | – | – | 5.26 h |
| MTTRLTRWLTTLDNFEAKMAQLPAVRRYGRLTRATGLVLEATGLQLPLGATCVIERQNGSETHEVESEVVGFNGQRLFLMPLEEVEGVLPGARVYAKNISAEGLQSGKQLPLGPALLGRVLDGSGKPLDGLPSPDTTETGALITPPFNPLQRTPIEHVLDTGVRPINALLTVGRGQRMGLFAGSGVGKSVLLGMMARYTRADVIVVGLIGERGREVKDFIENILGAEGRARSVVIAAPADVSPLLRMQGAAYATRIAEDFRDRGQHVLLIMDSLTRYAMAQREIALAIGEPPATKGYPPSVFAKLPALVERAGNGISGGGSITAFYTVLTEGDDQQDPIADSARAILDGHIVLSRRLAEAGHYPAIDIEASISRAMTALISEQHYARVRTFKQLLSSFQRNRDLVSVGAYAKGSDPMLDKAIALWPQLEGYLQQGIFERADWEASLQGLERIFPTVS | – | – | – | – | 2.04 ± 0.092 h | 3.72 h | 4.73 ± 0.2 h | – | – | – | – | 3.91 h |
| MTTRQHSSFAIVFILGLLAMLMPLSIDMYLPALPVISAQFGVPAGSTQMTLSTYILGFALGQLIYGPMADSFGRKPVVLGGTLVFAAAAVACALANTIDQLIVMRFFHGLAAAAASVVINALMRDIYPKEEFSRMMSFVMLVTTIAPLMAPIVGGWVLVWLSWHYIFWILALAAILASAMIFFLIKETLPPERRQPFHIRTTIGNFAALFRHKRVLSYMLASGFSFAGMFSFLSAGPFVYIEINHVAPENFGYYFALNIVFLFVMTIFNSRFVRRIGALNMFRSGLWIQFIMAAWMVISALLGLGFWSLVVGVAAFVGCVSMVSSNAMAVILDEFPHMAGTASSLAGTFRFGIGAIVGALLSLATFNSAWPMIWSIAFCATSSILFCLYASRPKKR | – | – | – | – | – | – | – | – | – | 6.0641 ± 0.0035 h | 11.8 h | 7.89 h |
| MTTYDRNRNAITTGSRVMVSGTGHTGKILSIDTEGLTAEQIRRGKTVVVEGCEEKLAPLDLIRLGMN | – | 4.25 ± 0.64 h | 4.53 ± 0.13 h | 4.42 ± 0.76 h | 2.88 ± 0.38 h | 4.16 ± 0.068 h | 5.42 ± 0.38 h | 4.075 ± 0.023 h | 6.36 ± 0.21 h | 4.52 ± 0.25 h | 9.35 ± 0.55 h | 4.22 ± 0.059 h |
| MTVETQLNPTQPVNQQIYRILRRDIVHCLIAPGTPLSEKEVSVRFNVSRQPVREAFIKLAENGLIQIRPQRGSYVNKISMAQVRNGSFIRQAIECAVARRAASMITESQCYQLEQNLHQQRIAIERKQLDDFFELDDNFHQLLTQIADCQLAWDTIENLKATVDRVRYMSFDHVSPPEMLLRQHLDIFSALQKRDGDAVERAMTQHLQEISESVRQIRQENSDWFSEE [P0ACM2] | 7.72 h | 5.98 ± 0.4 h | 5.9 ± 0.9 h | 4.12 ± 1.4 h | 3.42 ± 0.53 h | 6.44 ± 1.2 h | 10.2 ± 0.65 h | 5.71 ± 0.13 h | 11.7 ± 1.3 h | 5.18 ± 0.51 h | 9.7 ± 1.7 h | 6.15 ± 0.24 h |
